The target in this experiment is β1AR-84 (minimally thermostabilised turkey β1 adrenergic receptor construct) (turkey), P07700. Kind of experiment: cell-based or functional assay.
Sequence of β1AR-84 (minimally thermostabilised turkey β1 adrenergic receptor construct) (turkey), P07700 (P07700 other isoform, or with tags, fused parts or gaps): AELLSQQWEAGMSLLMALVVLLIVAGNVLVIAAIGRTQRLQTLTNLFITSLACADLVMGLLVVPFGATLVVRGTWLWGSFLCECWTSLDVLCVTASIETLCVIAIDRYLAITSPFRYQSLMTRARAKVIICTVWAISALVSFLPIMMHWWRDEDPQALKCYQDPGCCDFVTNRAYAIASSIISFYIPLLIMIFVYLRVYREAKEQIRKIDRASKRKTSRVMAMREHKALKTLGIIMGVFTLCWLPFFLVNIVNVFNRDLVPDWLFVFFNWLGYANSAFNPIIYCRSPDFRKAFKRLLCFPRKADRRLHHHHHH

B1: Mini Gs393, P04896 26-394 (protein)
chain: GIEKQLQKDKQVYRATHRLLLLGADNSGKSTIVKQMRILHGGSGGSGGTSGIFETKFQVDKVNFHMFDVGGQRDERRKWIQCFNDVTAIIFVVDSSDYNRLQEALNDFKSIWNNRWLRTISVILFLNKQDLLAEKVLAGKSKIEDYFPEFARYTTPEDATPEPGEDPRVTRAKYFIRDEFLRISTASGDGRHYCYPHFTCAVDTENARRIFNDCRDIIQRMHLRQYELL
Turning to B1, the isoprenaline Ki of DDM-solubilised β1AR-84 (alone […] µM) was found to be 0.0047 µM, the isoprenaline Ki of membrane-embedded β1AR-84 (alone […] µM) was found to be 0.0036 µM and the isoprenaline Ki of β1AR-84 with 0.25 mM GTPγS (alone 3.0 µM) worked out at 5.2 nM.

Source of the values: patent publication US20190032033A1.
